Reference: publication PMC5863699, “Sensing iron availability via the fragile [4Fe–4S] cluster of the bacterial transcriptional repressor RirA† †Electronic supplementary information (ESI) available. See DOI: 10.1039/c7sc02801f” (Chemical Science, 2017)

Target: the molecule itself
Assay: native MS; ESI-MS under non-denaturing conditions, positive ion mode; cluster-reconstituted [4Fe–4S] RirA, ~30 μM in cluster, 250 mM ammonium acetate pH 7.3; monomer to dimer

B1: Rhizobial iron regulator A (RirA) from Rhizobium leguminosarum (natural protein, UniProt Q9AE46 1-160, looked up)
chain: MRLTKQTNYAVRMLMYCAANDGHLSRIPEIAKAYGVSELFLFKILQPLNKAGLVETVRGRNGGVRLGKPAADISLFDVVRVTEDSFAMAECFEDDGEVECPLVDSCGLNSALRKALNAFFAVLSEYSIDDLVKARPQINFLLGITGEPAYRKPAIVAPAA
notes: RirA, Rhizobium leguminosarum strain 8401 (pRL1JI), rirA gene CAC35510, codon-optimised for E. coli; calculated mass of the monomer 17.4 kDa (apo predicted 17 442 Da, observed 17 441 Da); No tag is mentioned; It carries an iron–sulfur cluster as cofactor: [4Fe–4S] after reconstitution, and mainly [2Fe–2S] after 1 mM EDTA for 2.5 h; Less than 5% of the preparation was truncated, lacking 20 …
For B1, the “stoichiometry N” value was 2.
